B1: rabbit monoclonal antibody 4A11 (antibody, V domains shown)
VH: QSLEESGGRLVTPGTPLTLTCTVSGFSLSSYTVNWVRQAPGKGLEWIGYISYGGSAYYASWANGRFTISKTSATVDLKITSPTTEDTATYFCARHMQVGGAPTGSMAAFDPWGPGTLVTVSS
VL: AAVLTQTPSPVSAAVGGTVSISCQSSQSVYNNNYLSWFQQKPGQPPKLLIYGASTLTSGVPSRFKGSGSGTQFTLTISDVQCDDAATYYCAGGYSGSSDKYAFGGGTEVVVK
notes: VH of rbt4A11; VL of rbt4A11; Parental rabbit antibody; also called rbt4A11
B2: h4A11.v2.1 (antibody, V domains shown)
VH: EQQLVESGGGLVQPGGSLSLSCAVSGFSLSSYTVNWVRQAPGKGLEWIGYISYGGSAYYASWANGRFTISKDSAKNSVYLQMNSLRAEDTAVYFCARHMQVGGAPTGSMAAFDPWGPGTLVTVSS
VL: DAQLTQSPSSLSASVGDRVTITCQSSQSVYNNNYLSWFQQKPGKPPKLLIYGASTLTSGVPSRFSGSGSGTDFTLTISSLQPEDFATYYCAGGYSGSSDKYAFGGGTKVEIK
notes: as the VH of m7 (h4A11.v2) with the stated change; numbers count on: Kabat numbering of the heavy chain; as the VL of m7 (h4A11.v2); human IgG1; also called v2.1_R19S; source: Expi293F, transient, purified (Protein A, SEC)
B3: h4A11.v2.5 (antibody, V domains shown)
VH: B2 VH with Q81S
VL: B2 VL
notes: as the VH of m7 (h4A11.v2) with the stated changes; numbers count on: Kabat numbering of the heavy chain; as the VL of m7 (h4A11.v2); human IgG1; also called v2.5_ R19S, Q81S; source: Expi293F, transient, purified (Protein A, SEC)
B4: h4A11.v2.4 (antibody, V domains shown)
VH: B2 VH with Y79S
VL: B2 VL
notes: as the VH of m7 (h4A11.v2) with the stated changes; numbers count on: Kabat numbering of the heavy chain; as the VL of m7 (h4A11.v2); human IgG1; also called v2.4_ R19S, Y79S; source: Expi293F, transient, purified (Protein A, SEC)
B5: h4A11.v2.2 (antibody, V domains shown)
VH: B2 VH with S19R, Q81N
VL: B2 VL
notes: as the VH of m7 (h4A11.v2) with the stated change; numbers count on: Kabat numbering of the heavy chain; as the VL of m7 (h4A11.v2); human IgG1; also called v2.2_Q81N; source: Expi293F, transient, purified (Protein A, SEC)
B6: h4A11.v2.3 (antibody, V domains shown)
VH: B2 VH with S19R, Q81A
VL: B2 VL
notes: as the VH of m7 (h4A11.v2) with the stated change; numbers count on: Kabat numbering of the heavy chain; as the VL of m7 (h4A11.v2); human IgG1; also called v2.3_Q81A; source: Expi293F, transient, purified (Protein A, SEC)
B7: h4A11.v2.6 (antibody, V domains shown)
VH: B2 VH with Y79S, Q81S
VL: B2 VL
notes: as the VH of m7 (h4A11.v2) with the stated changes; numbers count on: Kabat numbering of the heavy chain; as the VL of m7 (h4A11.v2); human IgG1; also called v2.6_ R19S, Y79S, Q81S; source: Expi293F, transient, purified (Protein A, SEC)
B8: h4A11.v7.1 (antibody, V domains shown)
VH: EQQLQESGPGLVKPSETLRLTCTVTGFSLSSYTVNWVRQPAGKGLEWIGYISYGGSAYYASWANGRFTISKDSSKNQVYLKLSSVTAADTAVYFCARHMQVGGAPTGSMAAFDPWGPGTLVTVSS
VL: EAVLTQSPGTLSLSPGERATLSCQSSQSVYNNNYLSWFQQKPGQPPRLLIYGASTLTSGVPDRFSGSGSGTDFTLTISRLEPEDFAVYYCAGGYSGSSDKYAFGGGTKVEIK
notes: as the VH of m12 (h4A11.v7); numbers count on: Kabat numbering of the heavy chain; as the VL of m12 (h4A11.v7); human IgG1; also called v7.1_S19R, S79Y; source: Expi293F, transient, purified (Protein A, SEC)
B9: h4A11.v7.2 (antibody, V domains shown)
VH: B8 VH with Y79W
VL: B8 VL
notes: as the VH of m12 (h4A11.v7); numbers count on: Kabat numbering of the heavy chain; as the VL of m12 (h4A11.v7); human IgG1; also called v7.2_S19R, S79W; source: Expi293F, transient, purified (Protein A, SEC)
B10: h4A11.v7.5 (antibody, V domains shown)
VH: B8 VH with Y79W, K81Q
VL: B8 VL
notes: as the VH of m12 (h4A11.v7); numbers count on: Kabat numbering of the heavy chain; as the VL of m12 (h4A11.v7); human IgG1; also called v7.5_S19R, S79W, K81Q; source: Expi293F, transient, purified (Protein A, SEC)
B11: h4A11.v7.6 (antibody, V domains shown)
VH: B8 VH with Y79W, K81R
VL: B8 VL
notes: as the VH of m12 (h4A11.v7); numbers count on: Kabat numbering of the heavy chain; as the VL of m12 (h4A11.v7); human IgG1; also called v7.6_S19R, S79W, K81R; source: Expi293F, transient, purified (Protein A, SEC)
B12: h4A11.v7.3 (antibody, V domains shown)
VH: B8 VH with K81Q
VL: B8 VL
notes: as the VH of m12 (h4A11.v7); numbers count on: Kabat numbering of the heavy chain; as the VL of m12 (h4A11.v7); human IgG1; also called v7.3_S19R, S79Y, K81Q; source: Expi293F, transient, purified (Protein A, SEC)
B13: h4A11.v7.4 (antibody, V domains shown)
VH: B8 VH with K81R
VL: B8 VL
notes: as the VH of m12 (h4A11.v7); numbers count on: Kabat numbering of the heavy chain; as the VL of m12 (h4A11.v7); human IgG1; also called v7.4_S19R, S79Y, K81R; source: Expi293F, transient, purified (Protein A, SEC)

Where a chain is given by its changes, count along the chain named. Names and notes keep the numbering of the source.

T3 sequence (P01137 279-390): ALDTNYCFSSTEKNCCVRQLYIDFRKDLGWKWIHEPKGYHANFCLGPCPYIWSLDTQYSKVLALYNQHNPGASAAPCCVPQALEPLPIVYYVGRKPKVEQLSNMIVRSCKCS

The target of one assay is T1, human mature TGFβ3 (Homo sapiens, UniProt P10600). Briefly: cell-based or functional assay.
T1 sequence (P10600 301-412): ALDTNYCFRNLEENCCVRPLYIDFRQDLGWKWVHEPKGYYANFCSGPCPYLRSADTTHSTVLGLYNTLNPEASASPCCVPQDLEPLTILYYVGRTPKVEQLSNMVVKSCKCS
Conditions: not given
In the case of B1, the “TGFβ inhibition by HEK-Blue cells (IC50: nM), TGFb3; Blocking: Complete” value was 0.1 nM.

Another assay deals with T2, human mature TGFβ2 (PeproTech) (Homo sapiens, UniProt P61812). Briefly: cell-based or functional assay.
T2 sequence (P61812 303-414): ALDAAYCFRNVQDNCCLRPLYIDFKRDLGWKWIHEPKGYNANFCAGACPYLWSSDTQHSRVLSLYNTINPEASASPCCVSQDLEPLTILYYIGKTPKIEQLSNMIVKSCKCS
Conditions: not given
As for B1, the “TGFβ inhibition by HEK-Blue cells (IC50: nM), TGFb2; Blocking: Complete” value (shortened to “TGFβ inhibition … TGFb2; Blocking: Complete”) was found to be 0.9 nM.

The next assay addresses T3, human mature TGFβ1 (Homo sapiens, UniProt P01137). Briefly: cell-based or functional assay.
Conditions: not given
Regarding B1, the “TGFβ inhibition by HEK-Blue cells (IC50: nM), TGFb1” value was more than 667 nM.

In another assay the target is T1, human mature TGFβ3. Briefly: cell-based or functional assay.
Conditions: not given
The source holds these as a separate data set.
Consider B2, for which the “TGFβ inhibition by HEK-Blue cells (IC50: nM), TGFb3; Blocking: Complete” value was found to be 0.1 nM.
Still for that read-out and setting: in the case of B3 it was 0.1 nM; in that of B4, 0.2 nM.
Same read-out and setting: the value for B5 was 0.4 nM; that for B6 was 0.7 nM.
Still for that read-out and setting: the value for B7 was 0.3 nM.
As for B8, the “TGFβ inhibition by HEK-Blue cells (IC50: nM), TGFb3; Blocking: Incomplete” value (“TGFβ inhibition … TGFb3; Blocking: Incomplete” for short) was more than 667 nM.
As for B9, the “TGFβ inhibition … TGFb3; Blocking: Incomplete” value was more than 667 nM.
B10: the “TGFβ inhibition … TGFb3; Blocking: Incomplete” value was more than 667 nM.
On the same count and under the same terms, in the case of B11 it was more than 667 nM; in that of B12, more than 667 nM.
Turning to B13, the “TGFβ inhibition … TGFb3; Blocking: Incomplete” value was more than 667 nM.

The next assay addresses T2, human mature TGFβ2 (PeproTech). Briefly: cell-based or functional assay.
Conditions: not given
The source holds these as a separate data set.
For B2, the “TGFβ inhibition … TGFb2; Blocking: Complete” value was 0.7 nM.
Consider B3, for which the “TGFβ inhibition … TGFb2; Blocking: Complete” value amounted to 0.7 nM.
The same measure, in the same setting: in the case of B4 it was 2.2 nM.
On the same count and under the same terms, in the case of B5 it was 2.2 nM.
Still for that read-out and setting: in the case of B6 it was 1.7 nM; in that of B7, 1.7 nM.
In the case of B8, the “TGFβ inhibition by HEK-Blue cells (IC50: nM), TGFb2; Blocking: Incomplete” value is more than 667 nM.
On the same count and under the same terms, the value for B9 was more than 667 nM.
As to B10, the “TGFβ inhibition by HEK-Blue cells (IC50: nM), TGFb2; Blocking: Incomplete” value was more than 667 nM.
Still for that read-out and setting: the value for B11 was more than 667 nM; that for B12 was more than 667 nM; that for B13 was more than 667 nM.

A further assay deals with T1, human mature TGFβ3. Briefly: SPR; Biacore T200; antibody captured on a Protein A sensor chip (about 90 RU); mature TGFβ isoform injected, five-fold dilutions 0.008 nM to 5 nM; HBS-EP pH 7.4, 150 mM NaCl; 37 °C; 100 μl/min; 3 min association, 60 min dissociation; one-to-one Langmuir model, global fit. As to conditions: both partners purified.
Turning to B1, binding was put at a Kd of 1.2 pM.

The target in another assay is T2, human mature TGFβ2 (PeproTech). Described as above. As to conditions: both partners purified.
As to B1, binding was put at a Kd of 1.6 pM.

In the next assay the target is T3, human mature TGFβ1. The description is as above. As to conditions: both partners purified.
As for B1, the Kd (in general, the concentration at which binding is half-saturated) was more than 5 nM and the binding result is recorded as “no binding (tested: 5 nM)”.

The next assay concerns the target T1, human mature TGFβ3. The description is as above. As to conditions: both partners purified. The source holds these as a separate data set.
Turning to B2, binding was put at a Kd of 0.6 pM.
The same measure, in the same setting: the value for B3 was 0.6 pM; that for B4 was 0.6 pM; that for B5 was 6 pM.
B6 had a Kd of 5.5 pM.
Still for that read-out and setting: the value for B7 was 0.5 pM.
On the same count and under the same terms, the value for B8 was 40.5 pM; that for B9 was 22.8 pM; that for B10 was 7.2 pM.
On the same count and under the same terms, the value for B11 was 15.6 pM; that for B12 was 8 pM; that for B13 was 18.8 pM.

In the next assay the target is T2, human mature TGFβ2 (PeproTech). The assay is described as above. As to conditions: both partners purified. The source holds these as a separate data set.
In turn, B2 registered a Kd of 2.2 pM.
Regarding B3, the Kd turned out to be 1.7 pM.
The same measure, in the same setting: in the case of B4 it was 1.4 pM; in that of B5, 4.5 pM; in that of B6, 3.4 pM.
Molecule B7 registered a Kd of 1.9 pM.
Turning to B8, the Kd was found to be 10.7 pM.
On the same count and under the same terms, the value for B9 was 9.6 pM.
Still for that read-out and setting: the value for B10 was 5.6 pM.
On to B11, for which the dissociation constant Kd amounted to 9.7 pM.
The same measure, in the same setting: in the case of B12 it was 5.7 pM; in that of B13, 11.2 pM.

Another assay addresses T3, human mature TGFβ1. The description is as above. As to conditions: both partners purified. This is another data set of the same source.
Regarding B2, the Kd is more than 5 nM and the binding result is on record as “no binding (tested: 5 nM)”.
With B3, the equilibrium dissociation constant (Kd) was more than 5 nM and the binding result is “no binding (tested: 5 nM)”.
The matching figures for B4: more than 5 nM and “no binding (tested: 5 nM)”.
In the case of B5, the Kd is more than 5 nM and the binding result is on record as “no binding (tested: 5 nM)”.
The matching figures for B6: more than 5 nM and “no binding (tested: 5 nM)”.
For the molecule B7, the equilibrium dissociation constant (Kd) is more than 5 nM and the binding result was “no binding (tested: 5 nM)”.
Consider B8, for which the Kd was more than 5 nM and the binding result is recorded as “no binding (tested: 5 nM)”.
For the molecule B9, the Kd is more than 5 nM and the binding result is reported as “no binding (tested: 5 nM)”.
For B10 the same measures were more than 5 nM and “no binding (tested: 5 nM)”.
The matching figures for B11: more than 5 nM and “no binding (tested: 5 nM)”.
In the case of B12, the Kd is more than 5 nM and the binding result is “no binding (tested: 5 nM)”.
For B13 the same measures were more than 5 nM and “no binding (tested: 5 nM)”.
